Laboratory results reported in paper PMC6667215, “Cell-sized confinement controls generation and stability of a protein wave for spatiotemporal regulation in cells” (eLife, 2019).

Biological target: T1, sfGFP-MinD^D40AΔ10 (E. coli MG1655, UniProt P0AEZ3 1-260, D40A)
T1 construct: MinD of E. coli MG1655 with the D40A mutation and deletion of the C-terminal 10 amino acids, made from pET15-sfGFP-minD; 55 kDa after removal of the 2 kDa His-Tag (so in the source); also called MinD mutant treated by thrombin; His-sfGFP-MinD^D40AΔ10 (before cleavage); not shown: His tag, N-terminal, cleaved; sfGFP, N-terminal, kept
T1 sequence (looked up): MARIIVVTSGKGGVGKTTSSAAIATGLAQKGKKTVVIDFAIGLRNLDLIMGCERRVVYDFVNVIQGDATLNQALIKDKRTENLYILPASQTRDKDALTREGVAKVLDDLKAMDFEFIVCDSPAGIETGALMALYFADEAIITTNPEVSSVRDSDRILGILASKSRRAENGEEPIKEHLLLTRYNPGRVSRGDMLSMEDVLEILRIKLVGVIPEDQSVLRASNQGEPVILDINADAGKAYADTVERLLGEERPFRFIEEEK
Test: pull-down; His-tagged Min protein held on cOmplete His-Tag purification (Ni-NTA) resin; 9 µM MinE-mCherry-His, 3 µM His-sfGFP-MinD or 6 µM thrombin-treated MinD^D40AΔ10, with or without 3 µM BSA; RE buffer, 30 min, room temperature; washed with 20 mM imidazole, eluted with 250 mM imidazole; SDS-PAGE and CBB staining
Settings: both partners purified

binding result: binds
B1: MinE-mCherry-His (natural protein, E. coli K12 MG1655, UniProt P0A734 1-88, looked up)
chain: MALLDFFLSRKKNTANIAKERLQIIVAERRRSDAEPHYLPQLRKDILEVICKYVQIDPEMVTVQLEQKDGDISILELNVTLPEAEELK
notes: MinE, gene amplified from the E. coli K12 MG1655 genome and cloned into pET29a with mCherry (pET29-minE-mCherry-His); The 6xHis-tag was attached at the C-terminal of mCherry by PCR; the mCherry gene came from the pET21b-RL027A plasmid (Addgene); source: E. coli BL21-CodonPlus(DE3) RIPL, purified (His-Tag purification resin, HiTrap Q HP); not shown: mCherry, C-terminal, kept; 6xHis, C-terminal, …
